Assay results from patent US20250042946A1, “Biological Production of Histidine-Rich Peptides” (Oakgrove Bio LLC, priority 2021, published 2025).

B1: IFP-Api-003: split fusion, Apidaecin sandwiched between two copies of IFP100, cLNK GGDPGG, SEQ ID NO: 98 (protein)
chain: MASGGGQQHYHYHQQGGGGQQHYHYHQQGGDPGGGNNRPVYIPQPRPPHPPRGGDPGGQQHYHYHQQGGGGQQHYHYHQQGGGPGPGPHHHHHH
B2: IFP-Api-006: split fusion, two copies of Apidaecin sandwiched between three copies of IFP100, SEQ ID NO: 100 (protein)
chain: MASGGGQQHYHYHQQGGGGQQHYHYHQQGGDPGGGNNRPVYIPQPRPPHPPRGGDPGGQQHYHYHQQGGGGQQHYHYHQQGGDPGGGNNRPVYIPQPRPPHPPRGGDPGGQQHYHYHQQGGGGQQHYHYHQQGGGPGPGPHHHHH
B3: IFP-Luna-006: split fusion, two copies of Lunasin sandwiched between three copies of IFP100, SEQ ID NO: 102 (protein)
chain: MASGGGQQHYHYHQQGGGGQQHYHYHQQGGDPGGSKWQHQQDSCRKQLQGVNLTPCEKHIMEKIQGRGDDDDDDDDDPGGGGQQHYHYHQQGGGGQQHYHYHQQGGDPGGSKWQHQQDSCRKQLQGVNLTPCEKHIMEKIQGRGDDDDDDDDDPGGGGQQHYHYHQQGGGGQQHYHYHQQGGGPGPGPHHHHHH
B4: IIP003: insoluble immunogenic peptide, 6 × SAP162 with 3 × Ova1, Structure 9, SEQ ID NO: 104 (protein)
chain: MASGGDPGGHQEYHYHYRQHGGGGSIINFEKLGGGGHQEYHYHYRQHGGDPGGHQEYHYHYRQHGGGGSIINFEKLGGGGHQEYHYHYRQHGGDPGGHQEYHYHYRQHGGGGSIINFEKLGGGGHQEYHYHYRQHGGDPGGPGPGP
B5: IIP015: insoluble immunogenic peptide, 6 × SAP234 with 3 × Ova1, Structure 9, SEQ ID NO: 114 (protein)
chain: MASGGDPGGQQHYHYHQQGGGGSIINFEKLGGGGQQHYHYHQQGGDPGGQQHYHYHQQGGGGSIINFEKLGGGGQQHYHYHQQGGDPGGQQHYHYHQQGGGGSIINFEKLGGGGQQHYHYHQQGGDPGGPGPGP
B6: IFP221: insolubility fusion partner of IFP221-Api; 3 × QQEYHYHYHYRQQ with GGGG spacers as in SEQ ID NO: 94 (protein)
chain: MASGGGQQEYHYHYHYRQQGGGGQQEYHYHYHYRQQGGGGQQEYHYHYHYRQQGGGDPGGGNNRPVYIPQPRPPHPRLGGGGDPGGGNNRPVYIPQPRPPHPRLGGGGDPGPGPHHHHHH

How the values were obtained:
[1] = format: physicochemical
Procedure: After the acid-based purification step at acidic pH described in Example 5, the neutralized insoluble fusion peptides were washed again with water to remove traces of buffer and were resuspended in 1 mL of 10 mM HCl pH 2. The precipitates resolubilized immediately thus highlighting the rapid, reversible and pH-controllable properties of the peptide fusions to IFPs The tubes containing the solubilized fusion peptides were incubated at 80° C. for 4 hours to allow the cleavage of the Asp-Pro acid-labile peptide bond in the linker connecting the IFP and the POI. After four hours at 80° C., the solutions were neutralized back to a pH comprised between 6.5 and 8.0 by addition of 60 μL of 500 mM Tris Base Tris per mL of pH 2 peptide solution. For most fusions, the neutralization was accompanied by the immediate formation of precipitates. When only a light precipitate was observed, the buffer was adjusted to neutrality by careful addition of HCl or of buffer base. The neutralized fractions were placed at −20° C. for 20 min to enhance precipitation, and then subsequently thawed and centrifuged at 20,000×g for 5 min. The supernatants were transferred to a new tube and the pellets resuspended in 1 ml of water. Aliquots of soluble and insoluble fractions were analyzed by PAGE.

[2] = Soluble versus insoluble fraction of E. coli cell extracts, SDS-PAGE; format: physicochemical; details: cell extract in 25 mM Tris 50 mM NaCl pH 7.5, centrifugation 20,000×g
Procedure: To determine the soluble versus insoluble cell contents, cells from each of the 3 mL cultures were harvested by centrifugation and the pellet resuspended in 1 ml of 25 mM Tris 50 mM NaCl PH 7.5 buffer. The cell suspensions were transferred in 2 mL screw cap tubes containing 0.5 mL of ZrO2/SiO4 0.1 mm beads (Research Product International, Mount Prospect, IL) and disrupted in a FastPrep-24™ bead beater (MP Bio Irvine, CA) for 1 min at 5 m/s. After disruption, the cell extracts were transferred to new microfuge tubes. The soluble and insoluble fractions were then separated by centrifugation at 20,000×g for 5 min. The supernatants containing the soluble proteins were transferred to new tubes and the pellets containing the inclusion bodies were resuspended in the same volume of Tris-NaCl buffer.
Ten μL aliquots of the soluble fraction and of the particulate fraction are analyzed by SDS-PAGE using precast NuPAGE™ Bis-Tris 12% polyacrylamide gels (Thermo Scientific) as indicated by the manufacturer. After electrophoresis, the proteins and peptides were visualized by staining with GelCode™ Blue Safe Protein Coomassie Stain (Thermo Scientific).

[3] = format: physicochemical; details: pH 2
Procedure: To evaluate the useful solubilization of the IFPs at acidic and alkaline pH (from pH 2 to pH 12), the insoluble fractions of cell extracts expressing selected IFPs were produced as described in Example 2. They were pelleted by centrifugation for 5 min at 20,000×g and washed with water several times to remove the buffer. The washed pellets were resuspended in 10 mM HCl pH 2 or in 10 mM NaOH pH 12. Suspensions were mixed vigorously and allowed to stand at room temperature for 15 min at which time they were centrifuged again for 5 min at 20,000×g. The solubilization of the IFPs in either acidic (pH 2) or alkaline (pH 12) conditions was assessed by PAGE analysis of an aliquot of the centrifugation supernatant.
Cells were harvested by centrifugation at 20,000×g, resuspended in 1 mL of 25 mM Tris […] pH 7.5 and disrupted with a bead beater as described in Example 2. Following cell disruption and centrifugation, the insoluble fractions were washed several times in deionized water to remove traces of buffer and then recovered by centrifugation. The fractions were resuspended in 1 mL of 10 mM HCl pH 2 with repeated vortexing over 15 min at room temperature. […] Aliquots of each fraction corresponding to a same initial volume of cell extracts were analyzed by SDS-PAGE.

[4] = format: physicochemical; remark: listed apart in the source
Procedure: After 15 min at pH 2, the acidified supernatant fraction were neutralized by addition of 40 μL 500 mM Tris base or 60 μL of Bis-Tris base per mL of pH 2 fraction to reach a pH comprised between 6.5 and 8.0. For most fusions, the neutralization was accompanied by the immediate formation of a precipitate. When only a light precipitate was observed, the buffer was adjusted to neutrality by addition of HCl or of buffer base. The neutralized fractions were placed at −20° C. for 20 min and were subsequently thawed. The neutralized fractions were then centrifuged at 20,000×g for 5 min. Their supernatant was discarded and the pellets containing the insoluble fusion peptides resuspended in 1 ml of water.

| Molecule | solubility at neutral pH after acid cleavage (partition supernatant / pellet) [1] | solubility of the polypeptide as expressed in E. coli [2] | solubilization at acidic pH [3] | re-insolubilization (precipitation) upon neutralization [4] |
| --- | --- | --- | --- | --- |
| Apidaecin | recovered in the soluble fraction |  |  |  |
| IFP534: insolubility fusion partner, 4 × QQHYHYHQQ, GGGG linker, SEQ ID NO: 62 | remains in the insoluble fraction |  |  |  |
| Lunasin | recovered in the soluble fraction |  |  |  |
| B1 |  | expressed the split fusion insolubly |  |  |
| B2 |  | expressed the split fusion insolubly |  |  |
| B3 |  | expressed the split fusion insolubly |  |  |
| B4 |  | produced insolubly | solubilization | re-insolubilization |
| B5 |  | produced insolubly | solubilization | re-insolubilization |
| B6 | remains in the insoluble fraction |  |  |  |
